Data as given in US20230038638A1, “COMPLEMENT FACTOR I-RELATED COMPOSITIONS AND METHODS” (published 2023).

Assays:
human C4b (human) [1] = target: T1, human C4b (human) (UniProt P0C0L4)
T1 sequence: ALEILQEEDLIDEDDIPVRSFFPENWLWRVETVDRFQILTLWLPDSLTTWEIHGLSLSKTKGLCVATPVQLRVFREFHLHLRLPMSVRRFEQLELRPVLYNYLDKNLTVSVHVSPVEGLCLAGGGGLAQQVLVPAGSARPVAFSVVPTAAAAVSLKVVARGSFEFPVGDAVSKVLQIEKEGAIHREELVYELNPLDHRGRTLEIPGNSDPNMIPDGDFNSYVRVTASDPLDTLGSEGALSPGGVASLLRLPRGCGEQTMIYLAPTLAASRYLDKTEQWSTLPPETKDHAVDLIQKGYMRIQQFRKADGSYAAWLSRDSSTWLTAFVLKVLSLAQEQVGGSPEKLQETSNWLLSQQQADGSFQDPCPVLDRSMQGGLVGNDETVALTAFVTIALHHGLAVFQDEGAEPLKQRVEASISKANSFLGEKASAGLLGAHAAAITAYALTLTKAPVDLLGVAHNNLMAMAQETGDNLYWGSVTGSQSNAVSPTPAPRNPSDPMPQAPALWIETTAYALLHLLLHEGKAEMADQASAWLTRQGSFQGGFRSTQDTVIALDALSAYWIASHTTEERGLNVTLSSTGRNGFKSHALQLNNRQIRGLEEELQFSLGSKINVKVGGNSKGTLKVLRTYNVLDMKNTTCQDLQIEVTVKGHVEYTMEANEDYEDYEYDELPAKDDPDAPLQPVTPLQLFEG

[2] = target: soluble human C3b (human) (UniProt P01024)
human C4b (human) [3] = target: T1, human C4b (human); remark: listed apart in the source
[4] = target: soluble human C3b (human) (UniProt P01024); remark: listed apart in the source

Substance	C4b Screen Ref Fold (fold of CFI-HSA wild type) (human C4b (human) [1])	iC3b Screen Ref Fold (fold of CFI-HSA wild type) [2]	C4c EC50 (nM) (human C4b (human) [3])	iC3b EC50 [4] [µM]	C4b Screen Ref Fold (fold of reference) (human C4b (human) [1])	iC3b Screen Ref Fold (fold of reference) [2]	C4c EC50 (human C4b (human) [3]) [µM]
CFI-HSA variant P558S; E457G; E461Q; N531G (enzyme)	4.21	1.89	7.2	0.0043	–	–	–
CFI-HSA variant W381G (enzyme)	–	–	–	> 0.5	0.32	0	> 1
CFI-HSA variant K504R; E530F; D425K; P558S; E457G; E461Q; N531G (enzyme)	3.92	1.98	6.9	0.0024	–	–	–
CFI-HSA variant E530F; E457G; E461Q; N531G (enzyme)	4.17	2.48	9.1	0.0029	–	–	–
CFI-HSA variant E461H (enzyme)	–	–	134	0.0117	3.16	1.3	–
CFI-HSA variant E457G; E461Q; F464Y; K504H; N531G (enzyme)	1.78	0.49	> 1000	0.0227	–	–	–
CFI-HSA variant E461L (enzyme)	–	–	87.5	0.0073	4.22	1.71	–
CFI-HSA variant N460G (enzyme)	1.69	1.61	156	0.0175	–	–	–
CFI-HSA variant E457G; E461Q; F464Y; E530F; N531G; P558S (enzyme)	4.21	2.01	18.1	0.0042	–	–	–
CFI-HSA variant K504S (enzyme)	–	–	> 1000	0.0437	0.45	0.25	–
CFI-HSA variant E530R (enzyme)	–	–	–	0.0147	0.76	0.8	> 1
CFI-HSA variant K504R; E530F; D425K; P558G (enzyme)	0.08	3.07	> 1000	0.0052	–	–	–
CFI-HSA variant E457M (enzyme)	–	–	482	0.0254	1.6	1.05	–
CFI-HSA variant G406R (enzyme)	–	–	474	0.019	1.31	1.31	–
CFI-HSA variant E416A; E457G; E461Q; N531G (enzyme)	4.01	1.69	26.1	0.0042	–	–	–
CFI-HSA variant G406D; Y408L (enzyme)	–	–	–	0.0782	0.15	-0.02	> 1
CFI-HSA variant E457N (enzyme)	–	–	215	0.0163	4.31	0.9	–
CFI-HSA variant G406S (enzyme)	–	–	–	0.0326	1.83	0.4	0.315
CFI-HSA variant N422K; E457G; E461Q; Q467K; N531G (enzyme)	3.85	2.84	5	0.0025	–	–	–
CFI-HSA variant K504Y (enzyme)	–	–	196	0.0516	2.86	0.18	–
CFI-HSA variant G406Q (enzyme)	–	–	–	0.0307	0.91	0.68	> 1
CFI-HSA variant G406H (enzyme)	–	–	–	0.0204	1.17	0.6	0.197
CFI-HSA variant K504R; E530F; D425K; P558S (enzyme)	0.05	2.91	> 1000	0.0057	–	–	–
CFI-HSA variant E457Q (enzyme)	–	–	395	0.0198	1.8	1	–
